Reference: the nanobody polyreactivity screen of Harvey et al. (2022)

Assay: yeast display, Sf9 membrane polyspecificity reagent, FACS + sequencing; frameworks hold sequencing errors
Method in brief: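 Nanobodies from a synthetic yeast display library (Saccharomyces cerevisiae BJ5465), induced 36–48 hours with galactose, were stained 1 hour at 4 °C with 10% biotinylated, detergent-solubilized Sf9 membrane reagent, enriched on streptavidin microbeads, then FACS-sorted. Anti-HA (expression) and streptavidin (reagent binding) fluorescence set low and high (top ~1%) gates. Polyreactivity labels come from the gate of origin. Genes were colony-PCR amplified, MiSeq 2 × 250 sequenced and filtered by CDR length.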

Sequence	polyreactivity (PSR sort gate)
QVQLVESAGGLVQAGGSLRLSCSASGTIIWFYAMGWYRQAPGKERELVAAITRSGGSTYYADSVKGRFTISRDNAKNTVYLQMNSLKPEDTAVYYCAAGTVDYRGYFEMYYWGQGTQVTVSS	low polyreactivity
QVQLVESGGGLVQAGGSLRLSCAASGRIFDLNAMGWYRQAPGKETELVAAISYSGGRTFYADSVKGRFTISRDNAKNTVYLQMNSLKPEDTAVYYCNARYGKPAYQYGMDYWGQGTQVTVSS	low polyreactivity
QVQLVESGGGLVQAGGSLRLSCAASGRTFRIYAMGWYRQAPGKERELVAAISRSSTSTYYADSVKGRFTISRDNAKNTVYLQMNSLKPEDTAVYYCAAVVTVQYSQPYDHWGQGTQVTVSS	high polyreactivity
QVQLVESGGGLVQAGGSLRLSCAASGSIFHSYAMGWYRQAPGKETELVASITASGDSTYYADSVKGRFTISRDNAKNTVYLQMNSLKPEDTAVYYCNTQAVYGGGEGGYDYWGQCTQVTVSS	low polyreactivity
QVQLVESGGGLVQAGGSLRLSCAASGRIWVYYTMGWYRQAPGKERELVAAITGSGGSTYYADSVTGRFTISRDNATNTVYLQMNSLKPEDTAVYYCAVYDSYRKFKYWGQGTQVTVSS	high polyreactivity
QVQLVESGGGLVQPGGSLSLSCAASGLTFYSYAMGWSRQAPGKERELVAAITSSGSITYYADSVKGRFTISRDNAKNTVYLQMNSLTPEDTAVYYCAARPYRVRGQRFEGNYCGQGTQVTVSS	high polyreactivity
QDQLVDSGGGLVQAGGSLRLSCAASGSIYDPYAMGWYRQAPGKERELVATIDWDDASTYYADSVKGRFTISRDNAKNTVYLQMNSLKPEDTAVYYCATRDRAGYYYWGQGTQVTVSS	high polyreactivity
QVQLVESGGGLVQAGGSLRLSCAASGFIFKWYAMGWYRQAPGKERELVAAISTSGGSTYYADSVKGRFTISRDNAKNTVYLQMNSLKPEDTAVYYCAVLVGRLVWSYNHWGQGTQVTVSS	high polyreactivity
QVQLVESGGGLVQAGGSLRLSCAASGRTFATNVMGWYRQAPGKERELVAAISRSGGRTYYADSVKGRFTISRDNAKNTVYLQMNSLKPEDTAVYYCAARRRRFYYQYYRYDYWGQGTQVTVSS	high polyreactivity
QVQLVESGGGLVQAGGSLRLSCAASGSTFPNYAMGWYRQAPGKERELVASISVTTGSTYYADSVKGRFTISRDYAKNTVYLQMNSLKPEDTAVYYCAKRTSSRKFRGAYNYWGQGTQVTVST	high polyreactivity
QVQLVESGGGLVQAGGSLRLSCAASGFTFRYYAMGWYRQEPGKERELVAAISRSDSRTYADSVKGRFTISRDNAMNTVYIQMNSLNPEDTAVYYCNARYGYSSYVFIFDYWGQGTQVTVSS	high polyreactivity
KVQLVESGGGLVQAGGSLRLSCAASGINCYYYAMGWYRQAPGKERELVAVISSSGGRTYYADSVKGRFTISRDNSKNTVYLQMNSLKPEDTAVYYCAARGYGATYDYWGQGTQVTVSS	high polyreactivity
QVQLVESGGGLVQAGGSLRLSCAASGSTFRFYAMGWYRQAPGKERELVAGITGSGDSTYYADSVKGRFTISRDNAKNTVYLQMNSLKPEDTAVYYCNKRVVYRSSQFDYWGQGTQVTVSS	low polyreactivity
QVQLVESGGGLVQAGGSLRLSCAASGGTFTSYAMGWYRQAPGKERELVAAISWSGGSTYYADSVKGRFTISRDNAKNTVYLQMKSLKPEDTAVYYCAAVFYRYNAVRYDYWGQGTQVTVSS	high polyreactivity
QVQLVESGGGLVQAGGSLRLSCAASGFTFHWYAMGWYRQAPGKERELVAAITDTGGSTYYADSVKGRFTISRDNAKNTVYLQMNSLKPEDTAVYYCATRHSKYGYEYDYWGQGTQVTVSS	low polyreactivity
QVQLVESGGGLVQAGGSLRLSCAASGSIFLYNAMGWYRQAPGKERELVASISSGGITDYADSVKGRFTISRDNAKNTVYLQMNSLKPEDTAVYYCAATYSVYLDYAGGGPLYNHWGQGTQVTVSS	low polyreactivity
QVQLVESGGGLVQAGGSLRLSCAASGFIFGGYVMGWYRQAPGKERELVAAITWSGGSTYYADSVKGRFTISRDNAKHTVYVQLNSQKREDTAVYYCNSRVPARLWRWSPYPVDYWGQGTQVTLSS	high polyreactivity
QVQLVESGGGLVQAGGSLRLSCAASGFIFGYYAMGWYRQAPGKERELVAAISYSGGSTYYADSVKGRFTISRDNAKNTVYLQMNSLKPEDTAVYYCAKYGQSNYDWGQGTQVTVSS	high polyreactivity
QVQLVESGGGLVQAGGSLRLSCAASGSIFNDYAMGWYRQAPGKERELVATISSGGDTYYADSVKGRFTISRDNAKNTVYLQMNSLKPEDTAVYYCAALTGGYVVYTDSYDYWGQGTQVTVSS	low polyreactivity
QVQLVESGGGLVQAGGSLRISCAASGVIFGTYAMRSYRQAPGKERELVAAITSGGTTIYADSVKGRFTISRDNAKNTVYLQMNSLKPEDTAVYYCAARRLYVGYGYDYWGQGTQVTVSS	high polyreactivity
QVQLVDSGGGLVQAGGSLRLSCADSGSIFSRNTMGWYRQAPGKERELVAGISSSGSRTYYADSVKGRFTISRDNAKNTVYLQMNSLKPEDTAFYYCAAGSQRRYYHTNCDSFNYSGQGTQVTVSS	low polyreactivity
QVQLVESGGGLVQAGGSLRLSCAASGRIFQRNTMGWYRQAPGKERELVAAITWNGGSTYYADSVKGRFTISRDNAKNTVFLQMNSMKPEDTAVDYCATAYRYSVHKALGFNYWGQGTQVTVSS	high polyreactivity

Sequence	polyreactivity (PSR sort gate)
QVQLVESGGGLVQAGGSLRLSCAASGSIFRRNAMGWYRQAPGKERELVATITSDGSTDYADSVKGRFTISRDNAKNTFYLQMISLKPEDTAVYYCAVAYLWRPYDFREFDYWGQGTQVTLSS	low polyreactivity
QVQLVESGGGLVQAGGSLRLRGAASGGILVGYAMGWYRQAPGKERELVAAINYSGGSTNYADSVKGRFTISRDNAKNTVYLQMNSLKPEDTAVYYCAARSTARYGYWGQGTQVTVSS	low polyreactivity
QVQLVESGGGLVQAGGRLRLSCAASGITYTVYAMGWYRQAPGKERELLAAISSSGSTTYADSVNGRFTISRDNAKNTVYLLMNSLKPEDTAVYDCAAEGYYRFSTAYFRLKYEYWGQGTQVTVSS	low polyreactivity
QVQLVESGGGLVQAGGSLRLSCAASGSIFRPNTMGWYRQAPGKERELVAAIRAGGRTYYADSVKGRFTISRDNAKNTVYLQMNSLKPEDTAVYYCNAVPASASTWRGQVGYDYWGQGTQVTVSS	high polyreactivity
QVQLVESCGGLDQAGGSLRLSCAASGFMFHLYGMGWYRQAPGKEMEWVAAISSGGRTYYADSVKGRFTISRDNAKNTVYLQMNSLKPEDTAVYYCAVYVAYLYSYYYWGQGTQETVSS	low polyreactivity
QVQLVESGVGLVQAGGRLRLSCASSAIIFKIYAMGWYRQAPGKERELVADITSVGSTKYADSVKGRFTISRDNAKNTVYLQMNSLKPEDTAVYYCATDWVTSHDDDYWGQGTQVTVSS	low polyreactivity
QVQLVESGGGLVQAGGSLRLSCAASGSIFYPYVMGWYRQAPGKERELVAAITTSVGSTYYADSVKGRFTISRDNAKNTVYLQMNSLKPEDTAVYYCAAKYFGSRRPGRYNYWGQGTQVTVSS	high polyreactivity
QVQLVESGGGLVQAGGSLRLSCAASGRIFEVYAMGWYRQAPGKERELVARISDGGGSTYYADSVKGRFTISRDNAKNTVYLQMNSLKPEDTAVYYCAAGGDLRLDRRFAFVSRGDYWGQGTQVTVSS	low polyreactivity
QVQLVESGGGLVQAGGSLRLSCAASGSTFSEYAMGWYRQAPGKEREFVATITVRGGSTYYADSVKGRFTISRDNAKNTVYLQMNSLKPEDTAVYYCAADGSGYYDWYYYWGQGTQVTVSS	low polyreactivity
QVQLVESGGGLVQAGGSLRLSCAASGRIFYPNAMGWYRQAPGKERELVAAISWSGGSTYYADSVKGRFTISRDNAKNTVYLQMNSLKPEDTAVYFCAAKPYQVSSYDFSLRDYWGQGTQVTVSS	low polyreactivity
QVQLVESGGGLVQAGGSLRLSSAASGRIFWPNTIGWYRQAPGKERELVAAISWSGGSTYYADSVKGRFTISRDNAKNTVYLQMNSLIPEDTAVYYFNARYPNTRKYDYWGQGTQVTVSS	high polyreactivity
QVQLVESGGGLVQAGGSLRLSCAASGRTFVYNAMGWYRQAPGKERELVAAISAIDGSTYYADSVKGRFTISRDNAKNTVYLQMNSLKPEDTAVYYCAADTQLEASHKDRYEYDYWGQGTQVTVSS	low polyreactivity
QVQLVESGGGLVQAGGSLRLSCAASGFTFRWYTMGWYRQAPGKERELVASIRYGGGSTYYADSVKGRFTISRDNAKNTVYLQMNSLNPEDTAVYYCAAESAWTSPYDYWGQGTQVTVSS	high polyreactivity
QVQLVESGGGLVLAGGSLRLSCAASGRTFRTYTMGWYRQAPGKERELVAAISYSGGSTYYADSVKGRFTISRDNAKNTVYLQMNSLKPEDTAVYYCAVYQVGWYGLMDYWGEGTQVTVSS	high polyreactivity
QLQLVESGGGLVQAGGSLRLSCAASGLIFYDNMAWSRPAPAKEMELVAAISSSGGSTSYADSVKGRFSISRDNAKNTVYLQLISLKPEDTAVYYCAADSYPAYLGFVGFDYWGQGTQVTVSS	low polyreactivity
QVQLVETGGGLVQAGGSLRLSCAASGFTFEGYAMGWYRQAPGKERELVAAINGSGGSTYYADSVKGRFTISRDNAKNTVYLQMNSLKPEDTAVYYCAKTDAFYRGYGYWGQGTQVTVSS	low polyreactivity
QVQLVESAGGLVQAGGSLRLSCAASAFTFFDYVMGWYRQAPGKERELVAAISRNVGSTYYADSVKGRFTISRDNAKNTVYLQMNSLKPEDTAVYYCAGEPPPYEYDYWGQGTQVTVSS	high polyreactivity
QVQLVESGGGLVQAGGSLRLSCAASGRIFDTNAMGWYRQAPGKERELVAAITYSGGSTYYADSVKGRFTISRDNAKNTVYLQMNSLKPEDTAVYYCARVRPYSKYAYGYWGQGTQVTVSS	high polyreactivity
QVQLVESGGGLVQAGGSLRLSCAASGSTFLGYVMGWSRQAPGKERELVAAITRSGGRTYYADSVKGRFTISRDNAKNTVYLQMTSLNPEDTAVYYCAALRGPSFHGYGYWGQGTQVTVSS	high polyreactivity
QVQLVESGVGLVQAGGTLRLSCAASGIIISRYTMGWYRQAPGKERELVAAITSSGITYYADSVKGRFTISRDNAKNTVYLQLNSLKPEDTAVYYCARETYGDYVHYDYWGLGTQVTVSS	low polyreactivity
QVQLVESGGGLVQAGGSLRLSCAASGSIFVRNVMGWYRQPPGKERELVATIRYRGGSTYYADSVKGRFTISRDYAKNTVYLQMNSLKPEDTAVYYCNARYLWADEYYYWGQGTQVTVSS	low polyreactivity
